Test results reported in publication PMC9535869, “A novel nuclear receptor subfamily enlightens the origin of heterodimerization”.

What was measured:
Settings in all cases: protein: recombinant; tags: His6 tag, cleaved by thrombin; chain copies: 2
[1] = target: T1, NR7 deltaA/B (called full-length NR7), homodimer (Branchiostoma lanceolatum, UniProt A0A6B9UN24 30-389); experiment: SEC-nMS; homodimer on DNA, 102405 Da; Oligos annealed in 10 mM Tris-HCl pH 8.0, 100 mM NaCl, 0.1 mM EDTA; protein dimer:DNA 1:1.2; native 8% PAGE in 60 mM Tris/40 mM CAPS pH 9.4, pre-run at 4 C; SEC-nMS buffer not given in the material
[2] = target: T1, NR7 deltaA/B (called full-length NR7), …; experiment: SEC-nMS; Oligos annealed in 10 mM Tris-HCl pH 8.0, 100 mM NaCl, 0.1 mM EDTA; protein dimer:DNA 1:1.2; native 8% PAGE in 60 mM Tris/40 mM CAPS pH 9.4, pre-run at 4 C; SEC-nMS buffer not given in the material
[3] = target: T1, NR7 deltaA/B (called full-length NR7), …; experiment: SEC-nMS; NR7 and RXR mixture; Oligos annealed in 10 mM Tris-HCl pH 8.0, 100 mM NaCl, 0.1 mM EDTA; protein dimer:DNA 1:1.2; native 8% PAGE in 60 mM Tris/40 mM CAPS pH 9.4, pre-run at 4 C; SEC-nMS buffer not given in the material

T1 sequence (A0A6B9UN24 entry or part of it mutant): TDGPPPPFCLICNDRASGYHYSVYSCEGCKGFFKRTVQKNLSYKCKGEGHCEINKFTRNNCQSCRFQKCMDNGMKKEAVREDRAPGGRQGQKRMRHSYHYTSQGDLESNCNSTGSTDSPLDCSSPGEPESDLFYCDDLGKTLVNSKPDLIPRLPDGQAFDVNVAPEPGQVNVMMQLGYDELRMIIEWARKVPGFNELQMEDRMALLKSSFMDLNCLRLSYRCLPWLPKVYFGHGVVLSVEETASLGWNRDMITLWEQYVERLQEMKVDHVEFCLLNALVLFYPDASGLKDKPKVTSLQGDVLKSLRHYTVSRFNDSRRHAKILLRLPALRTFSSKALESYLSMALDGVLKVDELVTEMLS

B1: DR0 (dsDNA)
DNA 1: GATTTGAGGTCAAGGTCACACAGTTA
DNA 2: TAACTGTGTGACCTTGACCTCAAATC
- binding result [1]: binds

B2: DR4 (dsDNA)
DNA 1: ATTTGAGGTCACAGGAGGTCACACAG
DNA 2: CTGTGTGACCTCCTGTGACCTCAAAT
- binding result [2]: binds

B3: DR1 (dsDNA)
DNA 1: GATTTGAGGTCAGAGGTCACACAGTT
DNA 2: AACTGTGTGACCTCTGACCTCAAATC
- binding result [2]: binds

B4: IR3 (dsDNA)
DNA 1: GATTTGAGGTCACAGTGACCTCACAG
DNA 2: CTGTGAGGTCACTGTGACCTCAAATC
- binding result [3]: binds
